# The nanobody polyreactivity screen of Harvey et al. (2022)
# Test: yeast display, Sf9 membrane polyspecificity reagent, FACS + sequencing; frameworks hold sequencing errors
# Procedure, shortened: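 Galactose-induced (36–48 hours) yeast carrying a synthetic nanobody display library were exposed to 10% biotinylated, detergent-solubilized Sf9 membrane reagent at 4 °C for 1 hour. FACS followed streptavidin microbead enrichment, using low and high (top ~1%) gates for expression (anti-HA) and reagent binding (streptavidin). Colony PCR, MiSeq 2 × 250 sequencing and CDR-length filtering followed. Labels for polyreactivity reflect the gate of origin.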
row,Sequence,polyreactivity (PSR sort gate)
1,QVQLVESGGGLVQAAGSLRLSCAASGSTFDNKVMGWYRQAPGKERELVATITWGDGSTSYADSVKGRFTISRDIAKNTVYLELNSRKREDTAVYFCAAGEYYHRIFLWYVYWGQGTKVTVSS,low polyreactivity
2,QVQLVESGGGLVQAAGSLRLSCAASGYTLAGNAMGWYRQSPGIERELVAAIDWNGGSTTYADSVKGRFTISRDNAKNTVYLQMNSLKPEDSAVYYCNVDLGVNGDYWGQGWQVTVSS,low polyreactivity
3,QVQLVESGGGLVQAAGSLRLSCATSGFTFVSNAMGRYRQPHGKQRELVAAITKRRSGSTYYADSVKGRFTISRDNAKNTVYLQMNSLKPEDTAVYYCDRVPDTDGEYWGQGTQVTVSS,high polyreactivity
4,QVQLVESGGGLVQAAGSLRLSFAASGSIFGRYPMGWYRQAPGKERELVAAISTGDSTYYADSVKGRFTISRDNAKNTVYLQMISLKPEDTAVYYCNRRGRRGYDYWGQGTQVTVSS,high polyreactivity
5,QVQLVESGGGLVQAAGSLRLSSAASGLIFPYYVMGWYRQAPGKERELVAAISVSGGNTYYADSVKGRFTITRDNAKYTVYLQLNSLKPVDTAVYYSAADHYRGSYDYWGQGSQVTVSS,high polyreactivity
6,QVQLVESGGGLVQAAGSLRLSSAASGYTFYINAMGSYRQAPGKERELVATIRRRGGSTYYADSVKGRFTISRDNAKNTVYLQMNSLKPEDTAVYYCNADTLGGKYVYQYRRGFDYWGHGTQVTVSS,high polyreactivity
7,QVQLVESGGGLVQAAGSLRLSSAPSGRIFYKNARGWYRQAPGKETELVAAISWRGTSTYYADSVKGRFTISRDNAKNTVYLQMNILKPEDTAVYYCNTLYYSQREIYYWGYDSWGKGTQVTVSS,high polyreactivity
8,QVQLVESGGGLVQAAPSLRLSCAASGSTINNNAMGWYRQAPRKERELVAAIDSGFSTNYADSVKGRFTISRDNAKNTVYLQMNSLKPEDTAVYYCYADPDYFDYWGQGTQVTVSS,low polyreactivity
9,QVQLVESGGGLVQAGARLRLSCAASVSTFQSNAMGWSRQAPGKERELVAAIDQSGGSTYYADSLKGRFTISRDNAKNTVYLQMNSLKPEYTAVYYCAARTSGYWFSYGSWGQGTQVTVSS,high polyreactivity
10,QVQLVESGGGLVQAGASHRLSCAASGSTFRYNSMGSYRQAPGKERELVAAISRGGSTNYADSVNGRFTISRDNANNTVYLQMISLKPEATAVYYCAASGTRQEYDYWGQGTQVTVSS,high polyreactivity
11,QVQLVESGGGLVQAGASLRISCAASGNILPVYAMGWYRQAPGKEREFVAAITSRGGSTYYADSVKGRFTISRDNAKNTVYLQMNSLKPEDTAVYYCAAKYLRAYGYWGQGTQVTVSS,high polyreactivity
12,QVQLVESGGGLVQAGASLRLSCAASGFTFGVYAMVWYRQAPGTVIELVAAISSSGGSTYYADSVKGRFTISRDNAKNTVYLQMNSLKPEDTAVYYCAKDTNSYYKYGYWGQGTQVTVSS,high polyreactivity
13,QVQLVESGGGLVQAGASLRLSCAASGIILGSYAMGWYRQAPAKERELVAGITSGGGKYYADSVKGRFTISRDNAKNTVYLQMNSMKPEYTAVYYCAKLYFHYYRYGYWGQGTQVTVSS,low polyreactivity
14,QVQLVESGGGLVQAGASLRLSCAASGITFTPYAMGWYRQAPGKERELVAAISWRGGSTYYADSVKGRFTISRDNAKNTVYLQMNSLKPEDTAVYYCAKDGRGYGRYSRYYTGDYWGQGTQVTVSS,low polyreactivity
15,QVQLVESGGGLVQAGASLRLSCAASGLIFIHYAMGWYRQAPGKERELVATISRSGVRTYYADSVKGRFTISRDNAKNTVYLQMNSLKPEDTAVYYCAADYTTNFWGYRYNYWGQGTQVTVSS,low polyreactivity
16,QVQLVESGGGLVQAGASLRLSCAASGLNFKRNAMGWYRQAPGKERELVAAIRYSTDSTNYADSVKGRFTISRDNAKNTVFLQMNSLKPEDTAVYYCAKDKQDYEYWGQGTLVTVSS,low polyreactivity
17,QVQLVESGGGLVQAGASLRLSCAASGLTFIFYAMGWYRQAPGKERELVAAISVSGGCTYYADSVKGRFTISRDNAKNTVYLQMNSLKPEDTAVYYCAADREHFATYGPHMDYWGQGTQVTVSS,low polyreactivity
18,QVQLVESGGGLVQAGASLRLSCAASGRIFRNYAMGWYRQAPGKERELVAAISSSGGSTYYADSVKGRFTISRDIAKNTVYFQMNSLKPEDTAVYYCAAVARVRGRGDYWGQGSQVTVSS,high polyreactivity
19,QVQLVESGGGLVQAGASLRLSCAASGRIFYLNVMGWYIQAPGKERELVAAISSSDDSTYYADSVKGRFTISRHYAKNTVYLQMNSLKPEDTAVYYCAAGYHQVQNYGDAYYWSELYSWGLGTQVTVSS,low polyreactivity
20,QVQLVESGGGLVQAGASLRLSCAASGSIFADYAMGWYRQAPGKERELVAAISYNGDSTYYADSVKGRFTISRDNAKNTVYLQMNSLKPEDTGVYYCATEDNYWYVTGDLYHTAFYYWGQGTQVTVSS,low polyreactivity
21,QVQLVESGGGLVQAGASLRLSCAASGSIFAGYAMGWYRQAPWKERELVAAISWSGGGTYYADSVKGRFTISRDNEKNTVYLQMNSLKPEDTAVYYCNAYGYRHRGNGYWGQGTQVTVSS,high polyreactivity
22,QVQLVESGGGLVQAGASLRLSCAASGSIFIYYAMGWYRQAPGKERELVAAISGGGRTNYADSVKGRFTISRDNAKNTVYLQMNSLKPEDTAVYYCAADPVYWYSTMDFWGQGTQVTVSS,low polyreactivity

row,Sequence,polyreactivity (PSR sort gate)
1,QVQLVESGGGLVQAGASLRLSCAASGSISKSYAMGWYRQAPGKERELVAAISWRGGSTYADSVKGRFTISRDNAKNTVYLQMNSLKPEDTAVYYCAAVPVHTGSLYWGFTTGYDYWGQGTQVTVSS,low polyreactivity
2,QVQLVESGGGLVQAGASLRLSCAASGSTSYPYAMGWYRQAPWKEREFVAAITRSGGSTYYADSVKGRYTISRDNAKNTVYLQMNSLKPEDTAFYYCAARRYYFTDWYRRYDYWGQGTQVTVSS,high polyreactivity
3,QVQLVESGGGLVQAGASLRLSCAATGNIFVPNAMGWYRQEPGKERELVAAIRRGGSTNYADSVKGRFTISRDNAKNTVYLQMNSMKPEDTAVYYCAKSRVSFTELEGYYWGQGTQVNVSS,low polyreactivity
4,QVQLVESGGGLVQAGASLRLSCASSGFTFGYYTMGWYRQAPGKERELVAAISWSGDSTYYADSVKGRLTISRDNAKNTVYLQMNSLKPEDTAVYYCAAEVYGSWPDYDYSGQGTQVTVSS,low polyreactivity
5,QVQLVESGGGLVQAGASLRLSSAASGFIFRDYAMGWYRQAPGKDRELVAAISRGGGTTYYEDSVKGRFTISRENAKNTVYLQMNSLTPEDTAVYYCAAKSAFPLDYWGQGTQVTVSS,high polyreactivity
6,QVQLVESGGGLVQAGASLRVSCAASGISLKYAMVWYRQAPGKERELVASISSRGTSTYYADSVKGRFTISRDNAKNTVYLQMNCLIPEDTAVYYCAARVRWWSPGGYWGQGTQVSVSS,high polyreactivity
7,QVQLVESGGGLVQAGASLRVSCAASGSTFNYNAMGWYRQAPGKERELVAAITYSGSSTYYSDSVKGRFTISRDNAKNTVYLQMNSLKPEYTAVYYCAADYWFRYGTYEYWGQGTQVSVSS,high polyreactivity
8,QVQLVESGGGLVQAGCSHRLSCSSTGRTFYIYDMGRYRQAPGKERELVAVISWSGGDTNYADSVKGRFRISRDNAKNTVYLQMNSLKPEDTAVYYCAATRRDRRKSFTYRYDYWGQGTQVTVSS,high polyreactivity
9,QVQLVESGGGLVQAGCSLRISCAASGFTFGKYAMGLYRQAPGNERELVAAITQCGGSTYYADSVKGRFTISRDNAKNTVYLQMNSLKPEYTAVYYCAADRRRQYRPGGYWGQGTQVTVSS,high polyreactivity
10,QVQLVESGGGLVQAGCSLRISCAASGSIYATKAIGWYRQAPGKERELVASISSGGCSTYYADSVKARFTISRDNAKNTVYLQLNSLKPEDTAVYYCARRIGHGSRPYWLETWRYPYDYWGQGTQVTVSS,low polyreactivity
11,QVQLVESGGGLVQAGCSLRLICAASGFIFPTNAMGWYRQAPGKERELVARISYGGGDTHYADSVKGRFTISRANAKTTVYLQMNSLKPEDTAVHYCAVKDGQDDYWGQGTQVTVSS,low polyreactivity
12,QVQLVESGGGLVQAGCSLRLICAASGSTFDPNAMGWYRQSPGKERQLVAVIDSGDGTTYYADSVKGRFTISRDNAKNTVYLQMNSLKPEDTAVYYCAVDESTSYYDDHEDYWGQGTQVTVSS,low polyreactivity
13,QVQLVESGGGLVQAGCSLRLSCAASGFIFATNTMGWYRHSPGKERELVAASSTYYAESVKGRFTISRDNAKNTVYLQMNSLKQEDTAVYYCNAYRDSYIGFVDWAGEYWGQGTQVTVSS,low polyreactivity
14,QVQLVESGGGLVQAGCSLRLSCAASGFIFVFNAMGWYRQAPGKERELVAAINGGDITNYADSVKGRFTISRDNAKNTVYLQMNSMKPEDTAVYYCNADGYYFLISNANTLGYWGQGTQVNVSS,low polyreactivity
15,QVQLVESGGGLVQAGCSLRLSCAASGFILTYYLMGWYRQAPGKERELVAAILSGGNTYYADSVKGRFTISRDNAQNTVYLQMNCLKPEDTAVYYFNARPRWSYGLDYWGQGTQVTVSS,high polyreactivity
16,QVQLVESGGGLVQAGCSLRLSCAASGFTFDQYAMGWYRQAPGKEREFVAGNSYGRGRTYYADSVKGRFTISRDNAKNNFYLQMNSVKPEVTAVYYCAADGVYRYNYPYLYTYDYWGQGTQVTVSS,low polyreactivity
17,QVQLVESGGGLVQAGCSLRLSCAASGLIFGRNVMGWYRQAPGKERELVAAISWSGGRTYYADSVKGRFTISRDNAKNTVYLQMNSLKPEDTAVYYCATDRSTRTYRSPYDYWGQGTQVTVSS,high polyreactivity
18,QVQLVESGGGLVQAGCSLRLSCAASGRIFDFYAMGWYRHAPGKERELVAAISWDGSDTYYADSVKGRFTISRDNAKNTVYLQMNSLKPEDTAVYYCAADYYSPSGHEYNYWGQGTQVTVSS,high polyreactivity
19,QVQLVESGGGLVQAGCSLRLSCAASGRIFGQYAMGWYRQAPGKEREFVAGISTTGGSTYYADSVKGRFTISRDNAKNTVYLQMNSLKPEDTAVYYFAVRINWSRWYHYYTYNYWGQGTQVTVSS,high polyreactivity
20,QVQLVESGGGLVQAGCSLRLSCAASGRIFSFYAMGWYRQAPGKERELVITSGGDTNYADSVKGRFTISRDNAKNTVYLQLNSLKPEDTAVYYCNAEGDRSQPYNFDYWGQGTQVTVSS,low polyreactivity
21,QVQLVESGGGLVQAGCSLRLSCAASGRIFSFYVMGWYRQAPGKERELVAAISLSGGSTYYADSVKGRFTISRDNAKNTVYLQMNSLKPEDTAVYYCNAVLYARLRDRWARYDYWGQGTQVTVSS,high polyreactivity
